Experimental findings from article PMC8230641 are described below.

Test in all cases: native gel or EMSA
(A gel shift assay detects complexes by their altered migration in electrophoresis.)

Test [1] addresses BG505-NFL Env trimer (native flexible linker variant, C-terminal hexahistidine tag) (HIV-1 (BG505)).
Test [2] addresses BG505-NtCC Env trimer (NFL variant with the N-terminal cysteine-containing coupling tag CAAC and (G4S)3 linker) (HIV-1 (BG505)).
For test [3], the target named is BG505-SOSIP Env trimer (BG505 SOSIP.664 sequence, mini-tPA signal sequence, C-terminal hexahistidine tag) (HIV-1 (BG505)).
Test [4] addresses ConC-NFL Env trimer (stabilized HIV-1 clade C consensus, native flexible linker variant, with G473T) (HIV-1 clade C consensus).
In test [5] the target is ConC-NtCC Env trimer (stabilized HIV-1 clade C consensus NFL variant with the N-terminal coupling tag CAAC and (G4S)3 linker, with G473T) (HIV-1 clade C consensus).
Test [6] concerns the target ConC-SOSIP Env trimer (stabilized HIV-1 clade C consensus, ConCv5 KIKO, with G473T) (HIV-1 clade C consensus).

On to “BG505-NFL Env trimer (native flexible linker variant, C-terminal hexahistidine tag) (domain or fragment)”, for which the stoichiometry N (in general, a count of units in the complex or per binding partner) in test [1] is 3.

“BG505-NtCC Env trimer (NFL variant with the N-terminal cysteine-containing coupling tag CAAC and (G4S)3 linker) (domain or fragment)” gave a stoichiometry N in test [2] of 3.

Substance “BG505-SOSIP Env trimer (BG505 SOSIP.664 sequence, mini-tPA signal sequence, C-terminal hexahistidine tag) (complex)” gave a stoichiometry N in test [3] of 3.

“ConC-NFL Env trimer (stabilized HIV-1 clade C consensus, native flexible linker variant, with G473T)”: the stoichiometry N in test [4] stood at 3.

Consider “ConC-NtCC Env trimer (stabilized HIV-1 clade C consensus NFL variant with the N-terminal coupling tag CAAC and (G4S)3 linker, with G473T)”, for which the stoichiometry N in test [5] was found to be 3.

As to “ConC-SOSIP Env trimer (stabilized HIV-1 clade C consensus, ConCv5 KIKO, with G473T) (complex)”, the stoichiometry N in test [6] came to 3.
